Assay results as given in patent US20230250148A1 (published 2023).
Like-named read-outs stand apart in the source and are kept apart here.

Assays:
[1] = target: T1, human insulin receptor (IR) on human IM-9 cells (human, UniProt P06213 28-1382); assay: competition with biotinylated RHI on IM-9 cells, flow cytometry, 4 C
T1 construct: whole, on cells; also called human IR
Description: (§1) 40 µL of an IM-9 cell suspension (8×10⁶ cells/mL) was then added to each well by multichannel pipette, mixed again gently and incubated on ice for 30 min to allow competitive binding on the IR on IM-9 cells. Cells were then washed twice with 275µL of ice-cold FACS wash buffer (HBSS/2mM EDTA/0.1% Na-azide + 0.5% horse serum) by centrifuging the V-bottom plate at 3000 rpm for 3 min and aspirating the supernatant. Cells were then resuspended in 40µL of FACS staining medium containing 1:100 diluted Streptavidin-PE (Life Technologies) for 20 min on ice. Cells were then washed once with 275 µL of ice-cold FACS buffer and finally fixed with 3% paraformaldehyde for 10 min at room temp. Cells were then washed once with 275 µL of ice-cold FACS buffer and resuspended in 250µl of FACS buffer for analysis.
(§2) The insulin-Fc fusion proteins were manufactured in HEK293 cells according to Example 1 and purified using a Protein A column according to Example 4. Their structures were confirmed according to Example 6 by non-reducing and reducing CE-SDS, and the sequences were further identified by LC-MS with glycan removal according to Example 8. Their %homodimer content was measured by size-exclusion chromatography according to Example 10, and their insulin receptor binding affinities were measured according to Example 12.

[2] = target: T1, human insulin receptor (IR) on human …; assay: as above; remark: listed apart in the source
Description: as §1
The lack of in vivo potency for the insulin-Fc fusion protein of SEQ ID NO: 43 correlates with its high IC50 (shown in Table 9 below) as measured by the insulin receptor binding assay according to the method of Example 12.

[3] = target: T1, human insulin receptor (IR) on human …; assay: as above; remark: listed apart in the source
Description: as §1, §2

[4] = target: T2, biotinylated recombinant human Fc(gamma)RI (human, UniProt P12314 16-288, biotinylated, site not stated); assay: ELISA, fusion protein coated, biotinylated rhFc(gamma)RI in solution
T2 construct: Bought reagent; construct not described; also called rhFc(gamma)RI; Fc(gamma) receptor I
Description: The binding of insulin-Fc fusion proteins to the Fc(gamma)RI at pH 7.4 is conducted using an ELISA assay as follows using human Fc(gamma)RI (i.e., rhFc(gamma)RI). Insulin-Fc fusion proteins are diluted to 10 µg/mL in sodium bicarbonate buffer at pH 9.6 and coated on Maxisorp (Nunc) microtiter plates overnight at 4° C., after which the microplate strips are washed 5 times with PBST (PBS/0.05% Tween-20) buffer and blocked with Superblock blocking reagent (ThermoFisher). Serial dilutions of biotinylated rhFc(gamma)RI (recombinant human Fc(gamma)RI; R&D Systems) are prepared in PBST/10% Superblock buffer from 3000 ng/mL to 4.1 ng/mL and loaded at 100 µL/well onto the microplate strips coated with insulin-Fc fusion protein. The microtiter plate is incubated for 1 hour at room temperature after which time the microplate strips are washed 5 times with PBST and then loaded with 100 µL/well of streptavidin-HRP diluted 1:10000 in PBST/10% Superblock buffer. After incubating for 45 min, the microplate strips are washed again 5 times with PBST. TMB is added to reveal the bound Fc(gamma)RI proteins and is stopped with ELISA stop reagent (Boston Bioproducts). The plate is read in an ELISA plate reader at 450 nm, and the OD450 values (proportional to the binding of rhFc(gamma)RI to insulin-Fc protein) are plotted against log concentrations of rhFc(gamma)RI added to each well to generate binding curves using GraphPad Prism software. For groupings of compounds with somewhat similar curves, the OD450 at one of the higher concentrations, for instance at rhFc(gamma)RI concentrations of 3000 ng/mL, can be used to identify differences between coated insulin-Fc fusion protein compounds. […]

T2 sequence (P12314 16-288 limits assumed): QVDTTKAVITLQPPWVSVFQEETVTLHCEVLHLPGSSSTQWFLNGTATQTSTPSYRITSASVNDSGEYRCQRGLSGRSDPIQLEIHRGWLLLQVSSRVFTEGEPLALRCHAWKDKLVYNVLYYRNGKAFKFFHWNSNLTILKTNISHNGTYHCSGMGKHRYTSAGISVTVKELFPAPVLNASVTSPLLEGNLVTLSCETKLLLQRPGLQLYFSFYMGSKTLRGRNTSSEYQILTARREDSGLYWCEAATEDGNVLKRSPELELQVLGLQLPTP
T1 sequence (P06213 28-1382): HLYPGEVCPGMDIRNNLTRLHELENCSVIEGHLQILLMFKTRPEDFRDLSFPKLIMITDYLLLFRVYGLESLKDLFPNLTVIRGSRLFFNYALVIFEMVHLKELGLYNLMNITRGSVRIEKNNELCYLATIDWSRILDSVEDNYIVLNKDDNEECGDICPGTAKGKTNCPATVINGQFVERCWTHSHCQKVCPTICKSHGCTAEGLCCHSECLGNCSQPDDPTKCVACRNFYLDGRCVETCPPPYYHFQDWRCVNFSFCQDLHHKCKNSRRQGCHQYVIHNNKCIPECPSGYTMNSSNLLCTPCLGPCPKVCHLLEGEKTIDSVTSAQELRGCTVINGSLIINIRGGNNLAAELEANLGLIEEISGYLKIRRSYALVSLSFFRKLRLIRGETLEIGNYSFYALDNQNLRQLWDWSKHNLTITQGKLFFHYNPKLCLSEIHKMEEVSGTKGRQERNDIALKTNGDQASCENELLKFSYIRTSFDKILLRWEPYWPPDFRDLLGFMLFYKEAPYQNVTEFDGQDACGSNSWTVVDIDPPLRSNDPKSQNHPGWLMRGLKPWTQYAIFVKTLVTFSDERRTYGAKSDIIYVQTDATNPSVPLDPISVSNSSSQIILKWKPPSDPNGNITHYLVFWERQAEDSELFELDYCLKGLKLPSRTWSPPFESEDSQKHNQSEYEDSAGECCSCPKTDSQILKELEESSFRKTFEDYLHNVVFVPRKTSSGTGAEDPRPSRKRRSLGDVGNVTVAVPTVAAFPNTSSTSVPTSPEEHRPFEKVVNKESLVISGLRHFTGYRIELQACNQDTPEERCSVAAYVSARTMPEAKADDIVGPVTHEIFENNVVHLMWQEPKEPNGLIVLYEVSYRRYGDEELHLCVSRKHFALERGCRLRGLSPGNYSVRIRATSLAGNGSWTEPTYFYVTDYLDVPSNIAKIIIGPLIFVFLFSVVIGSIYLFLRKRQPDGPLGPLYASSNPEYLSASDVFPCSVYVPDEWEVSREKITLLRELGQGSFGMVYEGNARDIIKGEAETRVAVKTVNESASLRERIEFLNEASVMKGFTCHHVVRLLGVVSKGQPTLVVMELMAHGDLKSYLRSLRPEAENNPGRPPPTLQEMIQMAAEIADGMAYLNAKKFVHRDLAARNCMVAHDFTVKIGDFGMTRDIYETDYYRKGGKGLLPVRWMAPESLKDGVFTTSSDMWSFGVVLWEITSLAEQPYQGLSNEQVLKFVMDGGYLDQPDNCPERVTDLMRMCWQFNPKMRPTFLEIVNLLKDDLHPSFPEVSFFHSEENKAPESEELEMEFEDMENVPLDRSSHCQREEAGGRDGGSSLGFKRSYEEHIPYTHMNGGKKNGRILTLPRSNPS

B1: insulin-Fc fusion protein of SEQ ID NO: 56 (Fc fusion)
chain: FVNQHLCGSHLVEALELVCGERGFHYGGGGGGSGGGGGIVEQCCTSTCSLDQLENYCNHGGGGQGGGGQGGGGQGGGGGDCPKCPAPEMLGGPSVFIFPPKPKDTLLIARTPEVTCVVVDLDPEDPEVQISWFVDGKQMQTAKTQPREEQFNGTYRVVSVLPIGHQDWLKGKQFTCKVNNKALPSPIERTISKARGQAHQPSVYVLPPSREELSKNTVSLTCLIKDFFPPDIDVEWQSNGQQEPESKYRTTPPQLDEDGSYFLYSKLSVDKSRWQRGDTFICAVMHEALHNHYTQESLSHSPG
notes: Combined variant, canine IgGB Fc with native cNg
[1]
  IC50: 554 nM

B2: insulin-Fc fusion protein of SEQ ID NO: 28 (Fc fusion)
chain: FVNQHLCGSHLVEALELVCGERGFHYGGGGGGSGGGGGIVEQCCTSTCSLDQLENYCNGGGGGQGGGGQGGGGQGGGGGDCPKCPAPEMLGGPSVFIFPPKPKDTLLIARTPEVTCVVVDLDPEDPEVQISWFVDGKQMQTAKTQPREEQFNGTYRVVSVLPIGHQDWLKGKQFTCKVNNKALPSPIERTISKARGQAHQPSVYVLPPSREELSKNTVSLTCLIKDFFPPDIDVEWQSNGQQEPESKYRTTPPQLDEDGSYFLYSKLSVDKSRWQRGDTFICAVMHEALHNHYTQESLSHSPG
[1]
  IC50: 1250 nM

B3: insulin-Fc fusion protein of SEQ ID NO: 44 (Fc fusion)
chain: FVNQHLCGSHLVQALYLVCGERGFFYTDPTGGGPRRGIVEQCCTSICSLYQLENYCGGGGAGGGGDCPKCPAPEMLGGPSVFIFPPKPKDTLLIARTPEVTCVVVDLDPEDPEVQISWFVDGKQMQTAKTQPREEQFSGTYRVVSVLPIGHQDWLKGKQFTCKVNNKALPSPIERTISKARGQAHQPSVYVLPPSREELSKNTVSLTCLIKDFFPPDIDVEWQSNGQQEPESKYRTTPPQLDEDGSYFLYSKLSVDKSRWQRGDTFICAVMHEALHNHYTQESLSHSPG
[2]
  IC50: 2620 nM

B4: insulin-Fc fusion protein of SEQ ID NO: 45 (Fc fusion)
chain: FVNQHLCGSELVEALALVCGERGFFYTDPTGGGPRRGIVEQCCTSICSLYQLENYCGGGGAGGGGDCPKCPAPEMLGGPSVFIFPPKPKDTLLIARTPEVTCVVVDLDPEDPEVQISWFVDGKQMQTAKTQPREEQFSGTYRVVSVLPIGHQDWLKGKQFTCKVNNKALPSPIERTISKARGQAHQPSVYVLPPSREELSKNTVSLTCLIKDFFPPDIDVEWQSNGQQEPESKYRTTPPQLDEDGSYFLYSKLSVDKSRWQRGDTFICAVMHEALHNHYTQESLSHSPG
[2]
  IC50: 633 nM

B5: insulin-Fc fusion protein of SEQ ID NO: 54 (Fc fusion)
chain: FVNQHLCGSHLVEALALVCGERGFFYTQGGGGGGGGGIVEQCCTSICSLYQLENYCGGGGAGGGGDCPKCPAPEMLGGPSVFIFPPKPKDTLLIARTPEVTCVVVDLDPEDPEVQISWFVDGKQMQTAKTQPREEQFSGTYRVVSVLPIGHQDWLKGKQFTCKVNNKALPSPIERTISKARGQAHQPSVYVLPPSREELSKNTVSLTCLIKDFFPPDIDVEWQSNGQQEPESKYRTTPPQLDEDGSYFLYSKLSVDKSRWQRGDTFICAVMHEALHNHYTQESLSHSPG
[3]
  IC50: 2200 nM

B6: insulin-Fc fusion protein of SEQ ID NO: 47 (Fc fusion)
chain: FVNQHLCGSHLVEALALVCGERGFYYTDPTGGGPRRGIVEQCCTSICSLYQLENYCGGGGAGGGGDCPKCPAPEMLGGPSVFIFPPKPKDTLLIARTPEVTCVVVDLDPEDPEVQISWFVDGKQMQTAKTQPREEQFSGTYRVVSVLPIGHQDWLKGKQFTCKVNNKALPSPIERTISKARGQAHQPSVYVLPPSREELSKNTVSLTCLIKDFFPPDIDVEWQSNGQQEPESKYRTTPPQLDEDGSYFLYSKLSVDKSRWQRGDTFICAVMHEALHNHYTQESLSHSPG
[2]
  IC50: 2400 nM

B7: insulin-Fc fusion protein of SEQ ID NO: 52 (Fc fusion)
chain: FVNQHLCGSHLVEALALVCGERGFFYTPGGGGGGGGGIVEQCCTSICSLYQLENYCGGGGAGGGGDCPKCPAPEMLGGPSVFIFPPKPKDTLLIARTPEVTCVVVDLDPEDPEVQISWFVDGKQMQTAKTQPREEQFSGTYRVVSVLPIGHQDWLKGKQFTCKVNNKALPSPIERTISKARGQAHQPSVYVLPPSREELSKNTVSLTCLIKDFFPPDIDVEWQSNGQQEPESKYRTTPPQLDEDGSYFLYSKLSVDKSRWQRGDTFICAVMHEALHNHYTQESLSHSPG
[1]
  IC50: 4720 nM
[3]
  IC50: 1930 nM

B8: insulin-Fc fusion protein of SEQ ID NO: 55 (Fc fusion)
chain: FVNQHLCGSHLVEALELVCGERGFFYTPKTGGSGGGGGIVEQCCTSTCSLDQLENYCGGGGGQGGGGQGGGGQGGGGGDCPKCPAPEMLGGPSVFIFPPKPKDTLLIARTPEVTCVVVDLDPEDPEVQISWFVDGKQMQTAKTQPREEQFNGTYRVVSVLPIGHQDWLKGKQFTCKVNNKALPSPIERTISKARGQAHQPSVYVLPPSREELSKNTVSLTCLIKDFFPPDIDVEWQSNGQQEPESKYRTTPPQLDEDGSYFLYSKLSVDKSRWQRGDTFICAVMHEALHNHYTQESLSHSPG
[1]
  IC50: 3870 nM

B9: insulin-Fc fusion protein of SEQ ID NO: 57 (Fc fusion)
chain: FVNQHLCGSHLVEALELVCGERGFFYGGGGGGSGGGGGIVEQCCTSTCSLDQLENYCGGGGGQGGGGQGGGGQGGGGGDCPKCPAPEMLGGPSVFIFPPKPKDTLLIARTPEVTCVVVDLDPEDPEVQISWFVDGKQMQTAKTQPREEQFNGTYRVVSVLPIGHQDWLKGKQFTCKVNNKALPSPIERTISKARGQAHQPSVYVLPPSREELSKNTVSLTCLIKDFFPPDIDVEWQSNGQQEPESKYRTTPPQLDEDGSYFLYSKLSVDKSRWQRGDTFICAVMHEALHNHYTQESLSHSPG
[1]
  IC50: 2040 nM

B10: insulin-Fc fusion protein of SEQ ID NO: 42 (Fc fusion)
chain: FVNQHLCGSDLVEALALVCGERGFFYTDPTGGGPRRGIVEQCCHSICSLYQLENYCNGGGGAGGGGDCPKCPAPEMLGGPSVFIFPPKPKDTLLIARTPEVTCVVVDLDPEDPEVQISWFVDGKQMQTAKTQPREEQFKGTYRVVSVLPIGHQDWLKGKQFTCKVNNKALPSPIERTISKARGQAHQPSVYVLPPSREELSKNTVSLTCLIKDFFPPDIDVEWQSNGQQEPESKYRTTPPQLDEDGSYFLYSKLSVDKSRWQRGDTFICAVMHEALHNHYTQESLSHSPG
notes: non-glycosylated
[4]
  OD450nm: 0.126
  OD450nm minus assay background: 0.063
  ratio to SEQ ID NO: 36: 0.2

B11: insulin-Fc fusion protein of SEQ ID NO: 49 (Fc fusion)
chain: FVNQHLCGSHLVQALYLVCGERGFFYTDPTQRGGGGGQRGIVEQCCTSICSLYQLENYCGGGGAGGGGDCPKCPAPEMLGGPSVFIFPPKPKDTLLIARTPEVTCVVVDLDPEDPEVQISWFVDGKQMQTAKTQPREEQFSGTYRVVSVLPIGHQDWLKGKQFTCKVNNKALPSPIERTISKARGQAHQPSVYVLPPSREELSKNTVSLTCLIKDFFPPDIDVEWQSNGQQEPESKYRTTPPQLDEDGSYFLYSKLSVDKSRWQRGDTFICAVMHEALHNHYTQESLSHSPG
[1]
  IC50: 4180 nM

B12: insulin-Fc fusion protein of SEQ ID NO: 50 (Fc fusion)
chain: FVNQHLCGSHLVEALALVCGERGFFYTDPTGGGGGGSGGGGGIVEQCCTSICSLYQLENYCGGGGAGGGGDCPKCPAPEMLGGPSVFIFPPKPKDTLLIARTPEVTCVVVDLDPEDPEVQISWFVDGKQMQTAKTQPREEQFSGTYRVVSVLPIGHQDWLKGKQFTCKVNNKALPSPIERTISKARGQAHQPSVYVLPPSREELSKNTVSLTCLIKDFFPPDIDVEWQSNGQQEPESKYRTTPPQLDEDGSYFLYSKLSVDKSRWQRGDTFICAVMHEALHNHYTQESLSHSPG
[1]
  IC50: 1610 nM

B13: insulin-Fc fusion protein of SEQ ID NO: 51 (Fc fusion)
chain: FVNQHLCGSHLVEALALVCGERGFFYTDPGGGGGGGGGIVEQCCTSICSLYQLENYCGGGGAGGGGDCPKCPAPEMLGGPSVFIFPPKPKDTLLIARTPEVTCVVVDLDPEDPEVQISWFVDGKQMQTAKTQPREEQFSGTYRVVSVLPIGHQDWLKGKQFTCKVNNKALPSPIERTISKARGQAHQPSVYVLPPSREELSKNTVSLTCLIKDFFPPDIDVEWQSNGQQEPESKYRTTPPQLDEDGSYFLYSKLSVDKSRWQRGDTFICAVMHEALHNHYTQESLSHSPG
[3]
  IC50: 1920 nM
